Substitutions are numbered along the chain they refer to. Names and notes keep the numbering of the source.
Target: T1, β-casein, P02666
T1 chain: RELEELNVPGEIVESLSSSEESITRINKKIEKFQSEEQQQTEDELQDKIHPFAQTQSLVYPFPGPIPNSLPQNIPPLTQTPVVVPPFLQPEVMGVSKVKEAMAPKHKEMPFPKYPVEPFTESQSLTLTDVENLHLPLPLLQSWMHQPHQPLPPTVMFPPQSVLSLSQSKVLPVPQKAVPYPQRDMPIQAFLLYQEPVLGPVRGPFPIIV
Conditions: scale: % cleavage of non-glycosylated camel chymosin

B1: camel chymosin variant 293 (Y190A+N100Q+N291Q) (protein)
chain: GKVAREPLTSYLDSQYFGKIYIGTPPQEFTVVFDTGSSDLWVPSIYCKSNVCKNHHRFDPRKSSTFRNLGKPLSIHYGTGSMEGFLGYDTVTVSNIVDPQQTVGLSTEQPGEVFTYSEFDGILGLAYPSLASEYSVPVFDNMMDRHLVARDLFSVYMDRNGQGSMLTLGAIDPSYYTGSLHWVPVTLQQAWQFTVDSVTINGVAVACVGGCQAILDTGTSVLFGPSSDILKIQMAIGATENRYGEFDVNCGNLRSMPTVVFEINGRDYPLSPSAYTSKDQGFCTSGFQGDQNSELWILGDVFIREYYSVFDRANNRVGLAKAI
Protein B1 has a β(193-209): cleavage of β-casein at position 192/193 of 28.

B2: camel chymosin variant 308 (S273D+N100Q+N291Q) (protein)
chain: B1 chain with A190Y, S273D
B2 gave a β(193-209): cleavage of β-casein at position 192/193 of 66.

B3: camel chymosin variant 307 (Y243E+N100Q+N291Q) (protein)
chain: B1 chain with A190Y, Y243E
Work on B3 yielded a β(193-209): cleavage of β-casein at position 192/193 of 62.

B4: camel chymosin variant 296 (S273Y+N100Q+N291Q) (protein)
chain: B1 chain with A190Y, S273Y
In the case of B4, the β(193-209): cleavage of β-casein at position 192/193 is reported as 58.

B5: camel chymosin variant 282 (Q280E+N100Q+N291Q) (protein)
chain: B1 chain with A190Y, Q280E
For B5, the β(193-209): cleavage of β-casein at position 192/193 was 85.

B6: camel chymosin variant 285 (R254S+N100Q+N291Q) (protein)
chain: B1 chain with A190Y, R254S
For B6, the β(193-209): cleavage of β-casein at position 192/193 was 78.

B7: camel chymosin variant 286 (R242E+N100Q+N291Q) (protein)
chain: B1 chain with A190Y, R242E
With B7 the β(193-209): cleavage of β-casein at position 192/193 was 89.

B8: camel chymosin variant 276 (G289S+N100Q+N291Q) (protein)
chain: B1 chain with A190Y, G289S
B8 gave a β(193-209): cleavage of β-casein at position 192/193 of 51.

B9: camel chymosin variant 280 (D290L+N100Q+N291Q) (protein)
chain: B1 chain with A190Y, D290L
B9 gave a β(193-209): cleavage of β-casein at position 192/193 of 58.

B10: camel chymosin variant 272 (D290E+N100Q+N291Q) (protein)
chain: B1 chain with A190Y, D290E
In the case of B10, the β(193-209): cleavage of β-casein at position 192/193 is reported as 60.

B11: camel chymosin variant 303 (L130I+N100Q+N291Q) (protein)
chain: B1 chain with L130I, A190Y
B11 gave a β(193-209): cleavage of β-casein at position 192/193 of 29.

B12: camel chymosin variant 270 (V32L+N100Q+N291Q) (protein)
chain: B1 chain with V32L, A190Y
In the case of B12, the β(193-209): cleavage of β-casein at position 192/193 is reported as 28.

B13: camel chymosin variant 299 (L222I+N100Q+N291Q) (protein)
chain: B1 chain with A190Y, L222I
For B13, the β(193-209): cleavage of β-casein at position 192/193 was 54.

B14: camel chymosin variant 304 (S132A+N100Q+N291Q) (protein)
chain: B1 chain with S132A, A190Y
B14 showed a β(193-209): cleavage of β-casein at position 192/193 of 28.

B15: camel chymosin variant 295 (H76Q+N100Q+N291Q) (protein)
chain: B1 chain with H76Q, A190Y
Work on B15 yielded a β(193-209): cleavage of β-casein at position 192/193 of 48.

B16: camel chymosin variant 305 (S226T+N100Q+N291Q) (protein)
chain: B1 chain with A190Y, S226T
B16 showed a β(193-209): cleavage of β-casein at position 192/193 of 44.

B17: camel chymosin variant 306 (G251D+N100Q+N291Q) (protein)
chain: B1 chain with A190Y, G251D
For B17, the β(193-209): cleavage of β-casein at position 192/193 was 88.

B18: camel chymosin variant 275 (R242Q+N100Q+N291Q) (protein)
chain: B1 chain with A190Y, R242Q
For B18, the β(193-209): cleavage of β-casein at position 192/193 was 74.

B19: camel chymosin variant 283 (F282E+N100Q+N291Q) (protein)
chain: B1 chain with A190Y, F282E
B19 gave a β(193-209): cleavage of β-casein at position 192/193 of 79.

Reference: US20180187179
